The target in one test is PKA-RIα-GFP (Bos taurus, UniProt P00514). The test is described as follows: Surface plasmon resonance (BIAcore CM5 chips). It counts as binding. How it is done:
Two 27-mer peptides representing the Ile and Val variants (SEQ ID NOs:1 and 2, respectively) were synthesized and purified in milligram quantities and the affinity to PKA-RIα-GFP was determined using well-known surface plasmon resonance in combination with BIAcore chips (see, e.g., Current Opinion in Biotechnology (1997) 8:50-57; Current Opinion in Biotechnology (1994) 5:389-395; Current Opinion in Biotechnology (1994) 5:65-71; Structure (1995) 3:969; Current Biology (1995) pp. 699-705; Analytical Biochemistry (1991) 201:197-210; and macinfac.bio.unc.edu/biacore.html). PKA-RIα-GFP was coupled to BIAcore CM5 chips. BSA was immobilized on control chips.
The affinities in this assay are lower compared to those determined by fluorescence anisotropy. The most likely reason is that in this study the signal difference between the flow cell with the regulatory subunit and the control protein BSA was measured, such that slight unspecific binding to BSA directly reduces the apparent affinity. However, similar to previous results, an affinity difference of PKA-RIα-GFP to both allelic 27-mer peptides was observed (Table 6).

In the next test the target is RIα (Bos taurus, UniProt P00514). The test is described as follows: Fluorescence anisotropy binding of labeled 27-mer AKB Ile/Val peptides (Example 2). To be noted: in vitro; 10 nM labeled peptide. The protocol: To assess the magnitude of the affinity difference, binding of both Ile/Val variants to the R-subunit isoforms of PKA was analyzed in a quantitative assay. Twenty-seven residue peptides containing the two AKB domain Ile/Val variants (SEQ ID NOs:1 and 2, respectively) of D-AKAP2 with a C-terminal cysteine were synthesized by SynPep Corporation (Dublin, Calif.). The peptides were HPLC (high performance liquid chromatography) purified and mass spectrometry checked. Both peptides were labeled with tetramethyl rhodamine-5-maleiamide (Molecular Probes, Eugene, Oreg.) at the cysteine residue and HPLC purified. Increasing concentrations of RIα and RIIβ, respectively, were equilibrated with 10 nM of peptide for at least one hour at room temperature in 10 mM HEPES, 150 mM NaCl, 3 mM EDTA, 0.005% polysorbate 20. […] Fluorescence anisotropy was monitored using a Fluoromax-2 (Spex, Jobin Yvon Horiba, Edison, N.J.) equipped with polarizers. The fluorophore was excited at 541 nm (5-10 nm bandpass) and emission was monitored at 575 nm (5-10 nm bandpass). […]
RIα, sequence (P00514 whole entry, the tested form may be a part, canonical isoform): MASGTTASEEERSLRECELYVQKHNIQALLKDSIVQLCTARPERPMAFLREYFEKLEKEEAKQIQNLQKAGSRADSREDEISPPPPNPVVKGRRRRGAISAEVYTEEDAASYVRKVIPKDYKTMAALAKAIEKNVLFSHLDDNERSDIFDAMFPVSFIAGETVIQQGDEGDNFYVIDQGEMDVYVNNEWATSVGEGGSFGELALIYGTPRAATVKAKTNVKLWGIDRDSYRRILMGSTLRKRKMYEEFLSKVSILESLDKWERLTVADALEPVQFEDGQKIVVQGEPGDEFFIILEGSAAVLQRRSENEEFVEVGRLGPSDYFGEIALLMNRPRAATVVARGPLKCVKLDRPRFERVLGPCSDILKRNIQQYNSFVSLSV
Peptides of each AKB Ile/Val variant (SEQ ID NOs:1 and 2) were synthesized and fluorescence-labeled. Binding of the labeled peptides to the regulatory subunit isoforms was monitored using a fluorescence assay in which binding of the peptide was proportional to an increase in steady state anisotropy. […]
For orientation: In fluorescence polarisation assays a small probe gives low polarisation when free and higher when bound to something large.

In a further test the target is RIα isoform of PKA (Bos taurus, UniProt P00514). The test is described as follows: In vitro pull-down assay of GST-fused AKB domain variants (Example 1). The conditions noted are these: GST fusion of 40 C-terminal residues of D-AKAP2; RIα 20 μM; mouse and human AKB domains. The format is binding. The text has this:
Binding of each AKB domain variant to PKA was first examined using an in vitro pull-down assay, in which the 40 C-terminal residues of D-AKAP2 (amino acids 623-662 of SEQ ID NO:64) containing the AKB were fused to glutathione-S-transferase (GST). The GST fusion constructs were made by fusing the 40 C-terminal amino acids of D-AKAP2 to the C-terminus of GST and subcloning between the NdeI and BamHI sites of pRSET (Invitrogen, Carlsbad, Calif.). The constructs were transfected into BL21 cells and expressed for 6 hours at 20° C. The cells were lysed in PBS with 5 mM BME and 0.1% Triton X-100. 3 μl of supernatant were added to 200 μl of this buffer and 10 μl glutathione beads. After three washes, RIα (53 μg, 20 μM) and RIIα (2.4 μg, 2 μM) were added to the beads, respectively, and the total volume was adjusted to 40 μl. After incubating for 30 min at 4° C., the beads were washed three times, and separated in a 10% acrylamide gel.

The target in a further test is T1, RIα-D/D-GFP (Bos taurus, UniProt P00514).
T1 construct: The dimerization/docking (D/D) domain of RIα and full-length RIIα were each fused with green fluorescent protein (GFP); expressed in transfected cells; host or cells: 10T(1/2) cells
T1 sequence (P00514 2-135 limits assumed): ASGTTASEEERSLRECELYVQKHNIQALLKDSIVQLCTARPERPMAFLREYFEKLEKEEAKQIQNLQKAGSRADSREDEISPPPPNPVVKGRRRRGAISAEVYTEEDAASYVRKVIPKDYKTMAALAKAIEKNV
The test is described as follows: Co-localization of PKA regulatory domain with mitochondria-targeted AKB domain in 10T(1/2) cells (Example 3). The format is cell-based. To be noted: C-terminal 156 residues of D-AKAP2 fused to D-AKAP1 mitochondrial anchoring domain. The text has this: The 30 amino acid mitochondrial anchoring domain of D-AKAP1 (Chen et al. (1997) J. Biol. Chem., 272:15247-57; and Huang et al. (1997) J. Biol. Chem., 272:8057-8064) was fused to the C-terminal 156 residues of mouse (amino acids 217-372 of SEQ ID NO:55) and human (amino acids 507-662 of SEQ ID NO:64) D-AKAP2, respectively, followed by a Flag-tag and subcloned into pcDNA4 (Invitrogen, Carlsbad, Calif.). The dimerization/docking (D/D) domain of RIα and full-length RIIα were each fused with green fluorescent protein (GFP) and cloned into pEGFPN1 (Clontech, Palo Alto, Calif.). […] The AKB domain was detected by immuno-staining with monoclonal antibodies against the Flag-tag (Kodak, Rochester, N.Y.) followed by rhodamine-conjugated secondary antibody (Jackson Lab, Bar Harbor, Me.). […]
In this assay, the AKB domain within the C-terminal 156 residues of D-AKAP2 from mouse (Val) and human (Ile) was fused to the mitochondrial anchoring domain from D-AKAP1 and tethered to the outer mitochondrial membrane (Chen et al. (1997) J. Biol. Chem., 272:15247-15257; and Huang et al. (1997) J. Biol. Chem., 272:8057-8064). The binding of the AKB domain with the PKA regulatory domains was detected as the co-transfected PKA regulatory domains co-localized to the mitochondria. […]

In the next test the target is PKA-RIIα-GFP (Mus musculus, UniProt P12367). The test is described as follows: ELISA of biotinylated 27-mer peptide immobilized on neutravidin plates. To be noted: 25 μM peptide on neutravidin; 0-5 μg/ml PKA-RIIα-GFP. The format is binding. How it is done:
The peptide biotin-bA-bA-[…] (SEQ ID NO:14) was synthesized as a C-terminal amide in milligram quantity and purified to a 96% purity by HPLC. Its identity was confirmed by MALDI TOF (matrix-assisted laser desorption ionization time-of-flight) mass spectrometry. The peptide was immobilized in neutravidin (NA)-coated 96-well microtiter plates and incubated with various concentrations of PKA-RIIα-GFP. Binding was detected using an anti-GFP antibody (3E6, Quantum Biotechnologies, QBiogene, Carlsbad, Calif.) in combination with a second horseradish peroxidase labeled antibody. Microtiterplates were coated with 40 μg/ml Neutravidin (NA) and subsequently incubated with 25 μM peptide. Various concentrations (0-5 μg/ml) of PKA-RIIα-GFP were added. Bound subunit was detected using a mouse anti-GFP antibody (1 μg/ml) and an anti-mouse-IgG-antibody labeled with peroxidase (1 μg/ml). Negative controls were utilized that contained either a microtiter plate with only neutravidine or only peptide, or neither one.
(An ELISA detects its analyte on a solid surface through an enzyme-linked reagent.)

Read-outs that look alike come from different tables or passages of the source. Ends that are not written are not given here. Peptide text beside a SMILES is read from it.

PKA-RIα-GFP, sequence (P00514 1-109 limits assumed): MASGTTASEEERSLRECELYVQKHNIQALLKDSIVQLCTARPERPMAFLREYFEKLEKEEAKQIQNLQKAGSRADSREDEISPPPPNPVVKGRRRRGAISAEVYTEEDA
RIα isoform of PKA, sequence (P00514 whole entry, the tested form may be a part, canonical isoform): as the sequence (P00514 whole entry, the tested form may be a part, canonical isoform) above
PKA-RIIα-GFP, sequence (P12367 1-46): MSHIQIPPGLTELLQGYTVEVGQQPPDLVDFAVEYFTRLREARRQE

Take `CC[C@H](C)[C@H](NC(=O)[C@H](CCCCN)NC(=O)[C@H](Cc1c[nH]c2ccccc12)NC(=O)[C@H](C)NC(=O)[C@H](CC(C)C)NC(=O)[C@H](CCC(=O)O)NC(=O)[C@H](CCC(=O)O)NC(=O)[C@H](CCC(N)=O)NC(=O)[C@H](C)NC(=O)[C@H](CCC(=O)O)NC(=O)[C@H](CC(=O)O)NC(=O)[C@@H](NC(=O)[C@H](CC(N)=O)NC(=O)CNC(=O)[C@H](CCC(N)=O)NC(=O)[C@@H](NC(C)=O)C(C)C)[C@@H](C)O)C(=O)N[C@@H](C)C(=O)N[C@@H](CCCCN)C(=O)N[C@@H](CCSC)C(=O)N[C@H](C(=O)N[C@H](C(=O)N[C@@H](CO)C(=O)N[C@@H](CC(=O)O)C(=O)N[C@H](C(=O)N[C@@H](CCSC)C(=O)N[C@@H](CCC(N)=O)C(=O)N[C@@H](CCC(N)=O)C(N)=O)C(C)C)C(C)C)[C@@H](C)CC` [SEQ ID NO:15] (Ac-VQGNTDEAQEELAWKIAKMIVSDVMQQ-NH2): at PKA-RIα-GFP, the Kd was 500 nM.

In the case of `CC[C@H](C)[C@H](NC(=O)[C@H](CCCCN)NC(=O)[C@H](Cc1c[nH]c2ccccc12)NC(=O)[C@H](C)NC(=O)[C@H](CC(C)C)NC(=O)[C@H](CCC(=O)O)NC(=O)[C@H](CCC(=O)O)NC(=O)[C@H](CCC(N)=O)NC(=O)[C@H](C)NC(=O)[C@H](CCC(=O)O)NC(=O)[C@H](CC(=O)O)NC(=O)[C@@H](NC(=O)[C@H](CC(N)=O)NC(=O)CNC(=O)[C@H](CCC(N)=O)NC(=O)[C@@H](NC(C)=O)C(C)C)[C@@H](C)O)C(=O)N[C@@H](C)C(=O)N[C@@H](CCCCN)C(=O)N[C@@H](CCSC)C(=O)N[C@H](C(=O)N[C@H](C(=O)N[C@@H](CO)C(=O)N[C@@H](CC(=O)O)C(=O)N[C@H](C(=O)N[C@@H](CCSC)C(=O)N[C@@H](CCC(N)=O)C(=O)N[C@@H](CCC(N)=O)C(N)=O)[C@@H](C)CC)C(C)C)[C@@H](C)CC` [SEQ ID NO:16] (Ac-VQGNTDEAQEELAWKIAKMIVSDIMQQ-NH2), the Kd on PKA-RIα-GFP (PKA-RIα-GFP coupled to chip (1681 RU), BSA control chip, read-out: PKA-RIα-GFP binding affinity) was 860 nM.

“VQGNTDEAQEELAWKIAKMIVSDVMQQ (not fully specified (N-terminus); listed as Homo sapiens) [SEQ ID NO:2]”: the “binding affinity to RIα compared to the Ile variant” value with RIα is reported as “nearly three-fold increase in binding affinity”.

Turning to “Val variant: D-AKAP2 AKB domain with Val at amino acid 646 (SEQ ID NO:65), tested as GST fusion or mitochondria-targeted fusion construct (VQGNTDEAQEELAWKIAKMIVSDVMQQAQYDQPLEKSTKL; not fully specified)”, the “binding affinity to RIα compared to the Ile variant” value with RIα was “three-fold tighter”. In the test with RIα isoform of PKA, the “binding of the RIα isoform of PKA to the AKB variant” value is “significantly higher affinity”. In the test with RIα-D/D-GFP, the “targeting of RIα to the mitochondria” value is listed as “effectively targeted RIα to the mitochondria”.

“biotin-bA-bA-VQGNTDEAQEELAWKIAKMIVSDIMQQ [SEQ ID NO:14]”: the “binding to PKA-RIIα in ELISA” value on PKA-RIIα-GFP is reported as “able to bind to PKA-RIIα”.
